Source: patent publication US20050196753

Test system: recombinant Histone H3

human coactivator-associated arginine methyltransferase 1 (hCARM1), full-length, purified from baculovirus infected insect cells
methylation of Histone H3 (in vitro methylation assay, SDS-PAGE and film): hCARM1 methylates Histone H3 efficiently
